Legend:
[1] = Storage stability at different pH values, residual DON transformation activity; type: biochemical; conditions: storage at 30° C.
Protocol: (§1) To determine the transformation of DON to epi-THS by Akr I-III, described herein, the following assay was performed. An assay buffer was prepared containing 40 ppm DON, 1 mM NADPH in Teorell Stenhagen (TS) buffer, pH 6.0 (Östling and Virtama, Acta Physiologica Scandinavica, 1946, 11:4, 289-293). Tubes containing the assay buffer were transferred in a heating block at 30° C. The reaction was started by addition of Akr I-III to a final concentration of 200 nM in a final reaction volume of 200 μL. Samples were taken before reaction start, and 2, 5, 10, 15 and 20 min after reaction start. DON transformation reactions in these samples were stopped by mixing with absolute methanol at a 1:2 ratio, followed by a 1:100 dilution with 40% methanol. The concentrations of DON and epi-THS in the samples were determined with liquid chromatography-mass spectrometry (LC-MS) on a Sciex 5500 triple quadrupole mass spectrometer coupled to Agilent 1290 series UHPLC system, using the following MS parameters: Acquisition duration: 4 min; Scan Type: MRM (MRM); Polarity: Negative; Ion Source: Turbo Spray.
The storage stability of Akr I-III at different pH values was tested by incubating 1 μM enzyme in TS buffer solutions with a pH of 3.0-10.0 for 4 h at 30° C. in standard 1.5 ml Eppendorf tubes. Every hour, a DON transformation assay was conducted as described in Example 3. The starting activity at time 0 min was set to 100% and the relative residual activities were determined throughout the incubation. For the DON transformation assays, 80 μl of the storage solution were added to an assay reaction with a final volume of 400 μl, which corresponds to a 1:5 dilution of the storage solution. Akr I retained more than 93% activity during 4 hours at 30° C. from pH 4.0-10.0. Akr II retained 30% to 93% activity during 4 hours at 30° C. from pH […] retained 27% to 85% activity during 4 hours at 30° C. from pH 4.0-9.0. Akr I-III retained more than 40% of their activity for 4 hours at 30° C. from pH 4.0 to pH 8.0.

[2] = Storage stability in storage buffer at different temperatures, residual DON transformation activity; type: biochemical; conditions: storage buffer
Protocol: as §1
The storage stability of Akr I-III was tested by incubation of 5 μM enzyme solutions in storage buffer (50 mM Tris pH 9.0, 0.5M NaCl, 50% Glycerol), for 60 min in a thermocycler (Mastercycler, Eppendorf) set to gradient mode from 30° C. to 50° C. Throughout the incubation, samples were removed and placed on ice until DON transformation assays were performed as described in Example 3 to determine enzyme activities. The starting activity at time 0 min was set to 100% and the relative residual activities were determined throughout the incubation. Akr I retained more than 33% activity during 60 min in pH 6 at temperatures from 29.9° C. to 46.0° C. Akr III retained 15% to 90% activity during 20 min in pH 6 at temperatures from 29.9° C. to 40.7° C.

B1: Akr II: artificial amino acid sequence, variant of a wild type aldo-keto reductase (protein)
chain: MRTTEIAQGLKVSNLCIGAGPLGGMPTAFGYDVSEERGIATVQAVFDSPINFMDTSSEYGGSEARIGKVIREGLMPKGFVISSKADAEGEGVGRRGDFSAKQVRASFELSLERLGLTHLDVYFLHDPEKFPFEQVMARGGAMEELLRLKDEGLVGLVGVAGGDVLEMARYVDTGSLDILLNYGRYTLLDRSADSLITKVSDAGMAFLNAGPYASGLLAAPRGGSAWYQYAPPDATALQAVDQLHELCESFDVSLRSVALQFSMRDPRITSTVVGLSRPERVRALLDDEAAEIPAELWEQLPAPLNGDIVLPG
modifications: ArkII
Relative DON-transformation activity ([1]; pH 3.0, 0 h (starting activity set to 100%)): 100.0% | Relative DON-transformation activity ([1]; pH 3.0, 1 h): 34.5% | Relative DON-transformation activity ([1]; pH 3.0, 2 h): 1.1% | Relative DON-transformation activity ([1]; pH 3.0, 3 h): 0.0% | Relative DON-transformation activity ([1]; pH 3.0, 4 h): 0.0% | Relative DON-transformation activity ([1]; pH 4.0, 0 h (starting activity set to 100%)): 100.0% | Relative DON-transformation activity ([1]; pH 4.0, 1 h): 99.3% | Relative DON-transformation activity ([1]; pH 4.0, 2 h): 96.6% | Relative DON-transformation activity ([1]; pH 4.0, 3 h): 87.1% | Relative DON-transformation activity ([1]; pH 4.0, 4 h): 89.0% | Relative DON-transformation activity ([1]; pH 5.0, 0 h (starting activity set to 100%)): 100.0% | Relative DON-transformation activity ([1]; pH 5.0, 1 h): 100.1% | Relative DON-transformation activity ([1]; pH 5.0, 2 h): 99.8% | Relative DON-transformation activity ([1]; pH 5.0, 3 h): 99.3% | Relative DON-transformation activity ([1]; pH 5.0, 4 h): 92.4% | Relative DON-transformation activity ([1]; pH 6.0, 0 h (starting activity set to 100%)): 100.0% | Relative DON-transformation activity ([1]; pH 6.0, 1 h): 77.3% | Relative DON-transformation activity ([1]; pH 6.0, 2 h): 85.1% | Relative DON-transformation activity ([1]; pH 6.0, 3 h): 77.6% | Relative DON-transformation activity ([1]; pH 6.0, 4 h): 61.8% | Relative DON-transformation activity ([1]; pH 7.0.0, 0 h (starting activity set to 100%)): 100.0% | Relative DON-transformation activity ([1]; pH 7.0.0, 1 h): 79.6% | Relative DON-transformation activity ([1]; pH 7.0.0, 2 h): 64.5% | Relative DON-transformation activity ([1]; pH 7.0.0, 3 h): 56.9% | Relative DON-transformation activity ([1]; pH 7.0.0, 4 h): 57.4% | Relative DON-transformation activity ([1]; pH 8.0, 0 h (starting activity set to 100%)): 100.0% | Relative DON-transformation activity ([1]; pH 8.0, 1 h): 85.1% | Relative DON-transformation activity ([1]; pH 8.0, 2 h): 68.3% | Relative DON-transformation activity ([1]; pH 8.0, 3 h): 53.2% | Relative DON-transformation activity ([1]; pH 8.0, 4 h): 40.9% | Relative DON-transformation activity ([1]; pH 9.0.0, 0 h (starting activity set to 100%)): 100.0% | Relative DON-transformation activity ([1]; pH 9.0.0, 1 h): 76.5% | Relative DON-transformation activity ([1]; pH 9.0.0, 2 h): 54.7% | Relative DON-transformation activity ([1]; pH 9.0.0, 3 h): 36.1% | Relative DON-transformation activity ([1]; pH 9.0.0, 4 h): 29.9% | Relative DON-transformation activity ([1]; pH 10.0, 0 h (starting activity set to 100%)): 100.0% | Relative DON-transformation activity ([1]; pH 10.0, 1 h): 54.4% | Relative DON-transformation activity ([1]; pH 10.0, 2 h): 37.7% | Relative DON-transformation activity ([1]; pH 10.0, 3 h): 13.9% | Relative DON-transformation activity ([1]; pH 10.0, 4 h): 7.2% | Relative DON transformation activity ([2]; 29.9° C., 0 min (starting activity set to 100%)): 100.00% | Relative DON transformation activity ([2]; 29.9° C., 5 min): 95.8% | Relative DON transformation activity ([2]; 29.9° C., 10 min): 91.6% | Relative DON transformation activity ([2]; 29.9° C., 20 min): 90.3% | Relative DON transformation activity ([2]; 29.9° C., 35 min): 89.4% | Relative DON transformation activity ([2]; 29.9° C., 50 min): 84.1% | Relative DON transformation activity ([2]; 29.9° C., 60 min): 86.8% | Relative DON transformation activity ([2]; 35.3° C., 0 min (starting activity set to 100%)): 100.00% | Relative DON transformation activity ([2]; 35.3° C., 5 min): 91.9% | Relative DON transformation activity ([2]; 35.3° C., 10 min): 92.5% | Relative DON transformation activity ([2]; 35.3° C., 20 min): 86.0% | Relative DON transformation activity ([2]; 35.3° C., 35 min): 77.4% | Relative DON transformation activity ([2]; 35.3° C., 50 min): 49.6% | Relative DON transformation activity ([2]; 35.3° C., 60 min): 46.4% | Relative DON transformation activity ([2]; 37.9° C., 0 min (starting activity set to 100%)): 100.00% | Relative DON transformation activity ([2]; 37.9° C., 5 min): 90.5% | Relative DON transformation activity ([2]; 37.9° C., 10 min): 80.2% | Relative DON transformation activity ([2]; 37.9° C., 20 min): 65.0% | Relative DON transformation activity ([2]; 37.9° C., 35 min): 38.1% | Relative DON transformation activity ([2]; 37.9° C., 50 min): 10.6% | Relative DON transformation activity ([2]; 37.9° C., 60 min): 6.2% | Relative DON transformation activity ([2]; 40.7° C., 0 min (starting activity set to 100%)): 100.00% | Relative DON transformation activity ([2]; 40.7° C., 5 min): 61.5% | Relative DON transformation activity ([2]; 40.7° C., 10 min): 56.1% | Relative DON transformation activity ([2]; 40.7° C., 20 min): 15.5% | Relative DON transformation activity ([2]; 40.7° C., 35 min): 11.3% | Relative DON transformation activity ([2]; 40.7° C., 50 min): 0.00% | Relative DON transformation activity ([2]; 40.7° C., 60 min): 0.00% | Relative DON transformation activity ([2]; 43.4° C., 0 min (starting activity set to 100%)): 100.00% | Relative DON transformation activity ([2]; 43.4° C., 5 min): 39.2% | Relative DON transformation activity ([2]; 43.4° C., 10 min): 34.9% | Relative DON transformation activity ([2]; 43.4° C., 20 min): 21.9% | Relative DON transformation activity ([2]; 43.4° C., 35 min): 7.1% | Relative DON transformation activity ([2]; 43.4° C., 50 min): 0.00% | Relative DON transformation activity ([2]; 43.4° C., 60 min): 0.00% | Relative DON transformation activity ([2]; 46.0° C., 0 min (starting activity set to 100%)): 100.00% | Relative DON transformation activity ([2]; 46.0° C., 5 min): 2.9% | Relative DON transformation activity ([2]; 46.0° C., 10 min): 4.7% | Relative DON transformation activity ([2]; 46.0° C., 20 min): 0.00% | Relative DON transformation activity ([2]; 46.0° C., 35 min): 2.7% | Relative DON transformation activity ([2]; 46.0° C., 50 min): 0.00% | Relative DON transformation activity ([2]; 46.0° C., 60 min): 0.00% | Relative DON transformation activity ([2]; 50.8° C., 0 min (starting activity set to 100%)): 100.00% | Relative DON transformation activity ([2]; 50.8° C., 5 min): 4.7% | Relative DON transformation activity ([2]; 50.8° C., 10 min): 5.7% | Relative DON transformation activity ([2]; 50.8° C., 20 min): 9.4% | Relative DON transformation activity ([2]; 50.8° C., 35 min): 2.4% | Relative DON transformation activity ([2]; 50.8° C., 50 min): 0.00% | Relative DON transformation activity ([2]; 50.8° C., 60 min): 0.00%
